Starred links: 1 amine or outer side, 2 acyl side, 3 side chain; linkers in the order of their positions; H or OH if unused. Positions of bridges follow the written chain, without caps; N, C: chain ends. Non-standard residues stand in square brackets, D forms with d. Primed or numbered codes have the meaning given here. No end group written: not given here. Tyr(OMe) = O-methyl tyrosine, COc1ccc(C[C@H](N[*:1])C(=O)[*:2])cc1; mXylyl(5) = bridging moiety between the two residues (meta-xylyl); mXylyl = bridging moiety between residues (mXylyl(i,j)); Trp(5-F) = N[C@@H](Cc1c[nH]c2ccc(F)cc12)C(=O)O; Trp(7-aza) = N[C@@H](Cc1c[nH]c2ncccc12)C(=O)O; NMePhe(4-F) = CN[C@@H](Cc1ccc(F)cc1)C(=O)O; PEG2000 = polyethylene glycol, 2000 Da; Phe(4-F) = N[C@@H](Cc1ccc(F)cc1)C(=O)O; Phg(2-OMe) = COc1ccccc1[C@H](N)C(=O)O; mXylylene = c1cc(C[*:1])cc(C[*:2])c1; oXylylene = c1ccc(C[*:2])c(C[*:1])c1; pXylylene = c1cc(C[*:2])ccc1C[*:1]; Chg = N[C@H](C(=O)O)C1CCCCC1; Phg = N[C@H](C(=O)O)c1ccccc1; Tle = CC(C)(C)[C@H](N)C(=O)O; NMeS = CN[C@@H](CO)C(=O)O; NMeA = CN[C@@H](C)C(=O)O; Nva = CCC[C@H](N)C(=O)O; Sar = CNCC(=O)O

The results in this text go back to patent US11535650 (RA PHARMACEUTICALS, dated 2022).

To fix the notation:
B1: R3053 (peptide)
peptide: [Nva]CCN[Tle][Phg]C[Tle][NMeS]C[Tle]-NH2
modifications: linker (positions not given here) via mXylylene; also: mXylyl-bicyclo: Cys pairing not given here
B2: R3004 (peptide)
peptide: Ac-[Nva]CYNN[Tle]E[Trp(7-aza)]EYP[Phg][Tle]-NH2
SMILES: CCC[C@H](NC(C)=O)C(=O)N[C@@H](CS)C(=O)N[C@@H](Cc1ccc(O)cc1)C(=O)N[C@@H](CC(N)=O)C(=O)N[C@@H](CC(N)=O)C(=O)N[C@H](C(=O)N[C@@H](CCC(=O)O)C(=O)N[C@@H](Cc1c[nH]c2ncccc12)C(=O)N[C@@H](CCC(=O)O)C(=O)N[C@@H](Cc1ccc(O)cc1)C(=O)N1CCC[C@H]1C(=O)N[C@H](C(=O)N[C@H](C(N)=O)C(C)(C)C)c1ccccc1)C(C)(C)C
B3: R3041 (peptide)
peptide: Ac-YEN[Tle]YWEYP[Phg][Nva]-NH2
SMILES: CCC[C@H](NC(=O)[C@@H](NC(=O)[C@@H]1CCCN1C(=O)[C@H](Cc1ccc(O)cc1)NC(=O)[C@H](CCC(=O)O)NC(=O)[C@H](Cc1c[nH]c2ccccc12)NC(=O)[C@H](Cc1ccc(O)cc1)NC(=O)[C@@H](NC(=O)[C@H](CC(N)=O)NC(=O)[C@H](CCC(=O)O)NC(=O)[C@H](Cc1ccc(O)cc1)NC(C)=O)C(C)(C)C)c1ccccc1)C(N)=O
B4: R3077 (peptide)
peptide: Ac-[Nva][Nva]YEN[Tle]Y[Trp(7-aza)]EYP[Chg][Nva]K
modifications: not fully specified (residue 14, C-terminus); printed as Ac-Nvl-Nvl-Y-E-N-Tbg-Y-azaTrp-E-Y-P-Chg-Nvl-K-(PEG2000) NH2; also: PEG2000 at C-terminal Lys, attachment site unstated
B5: R3072 (peptide)
peptide: Ac-[Nva][Nva]YEN[Tle]Y[Trp(7-aza)]EYP[Chg][Nva]K-NH2
SMILES: CCC[C@H](NC(C)=O)C(=O)N[C@@H](CCC)C(=O)N[C@@H](Cc1ccc(O)cc1)C(=O)N[C@@H](CCC(=O)O)C(=O)N[C@@H](CC(N)=O)C(=O)N[C@H](C(=O)N[C@@H](Cc1ccc(O)cc1)C(=O)N[C@@H](Cc1c[nH]c2ncccc12)C(=O)N[C@@H](CCC(=O)O)C(=O)N[C@@H](Cc1ccc(O)cc1)C(=O)N1CCC[C@H]1C(=O)N[C@H](C(=O)N[C@@H](CCC)C(=O)N[C@@H](CCCCN)C(N)=O)C1CCCCC1)C(C)(C)C
B6: R3005 (peptide)
peptide: Ac-[Nva]CY[Trp(7-aza)][Sar][Tle][Nva][Trp(7-aza)]EYP[Phg]P-NH2
SMILES: CCC[C@H](NC(C)=O)C(=O)N[C@@H](CS)C(=O)N[C@@H](Cc1ccc(O)cc1)C(=O)N[C@@H](Cc1c[nH]c2ncccc12)C(=O)N(C)CC(=O)N[C@H](C(=O)N[C@@H](CCC)C(=O)N[C@@H](Cc1c[nH]c2ncccc12)C(=O)N[C@@H](CCC(=O)O)C(=O)N[C@@H](Cc1ccc(O)cc1)C(=O)N1CCC[C@H]1C(=O)N[C@H](C(=O)N1CCC[C@H]1C(N)=O)c1ccccc1)C(C)(C)C
B7: R3006 (peptide)
peptide: Ac-YEN[Tle]Y[Trp(7-aza)]EY[Sar][Nva][NMeS]-NH2
SMILES: CCC[C@H](NC(=O)CN(C)C(=O)[C@H](Cc1ccc(O)cc1)NC(=O)[C@H](CCC(=O)O)NC(=O)[C@H](Cc1c[nH]c2ncccc12)NC(=O)[C@H](Cc1ccc(O)cc1)NC(=O)[C@@H](NC(=O)[C@H](CC(N)=O)NC(=O)[C@H](CCC(=O)O)NC(=O)[C@H](Cc1ccc(O)cc1)NC(C)=O)C(C)(C)C)C(=O)N(C)[C@@H](CO)C(N)=O

The target of this experiment is human C5 protein (human, UniProt P01031 19-673; P01031 678-1676). The experiment in a line: cell-based or functional assay.
For Ac-[Nva]C[Phg]T[Trp(7-aza)]E[Tyr(OMe)][NMeS]HC[Nva]-NH2 (linker 2-10 via mXylyl(5)) [R3074], the “Avg. IC50, human hemolysis assay (complete human sera)” value (“Avg. IC50, human hemolysis assay” for short) was 308 nM.
As to [Nva]CY[NMeS][Phg][NMePhe(4-F)][NMeS]H[NMePhe(4-F)]GC-NH2 (linker 2-11 via mXylyl(5)) [R3075], the “Avg. IC50, human hemolysis assay” value is more than 75000 nM.
As for Ac-[Nva]C[Chg]T[Trp(7-aza)]EY[NMeS]HC[Nva]-NH2 (linker 2-10 via pXylylene) [R3058], the figure is more than 10000 nM; as for B1, more than 100000 nM; as for MCVERFCDV-NH2 (linker 2-7 via mXylyl(5)) [R3046], more than 100000 nM.
Regarding B2, the “Avg. IC50, human hemolysis assay” value was 53.5 nM.
As for MCVERFC-NH2 (linker 2-7 via mXylyl(5)) [R3047], the figure is more than 100000 nM; as for MCVERFCDVY-NH2 (linker 2-7 via mXylyl) [R3045], more than 100000 nM.
As for B3, the figure is 71.3 nM; as for Ac-[Nva]C[Phg]T[Trp(7-aza)]EYSAC[Nva]-NH2 (linker 2-10 via mXylyl(5)) [R3084], more than 100000 nM.
Take PEG2000-[Nva][Nva]YEN[Tle]Y[Trp(7-aza)]EYP[Phg][Nva]-NH2 [R3078]: the “Avg. IC50, human hemolysis assay” value amounted to 568 nM.
In the case of Ac-CVERFCDVYWEF-NH2 (linker 1-6 via mXylyl(5)) [R3048], the “Avg. IC50, human hemolysis assay” value amounted to 19.3 nM.
To Ac-[Nva]C[Phg(2-OMe)]T[Trp(7-aza)]EY[NMeS]HC[Nva]-NH2 (linker 2-10 via mXylyl(5)) [R3087] belongs more than 25000 nM; to Ac-[Nva]C[Phg]T[Trp(7-aza)]EY[NMeS]HCA-NH2 (linker 2-10 via mXylyl) [R3039], 240 nM.
To Ac-[Nva]C[Phg]T[Trp(7-aza)]EY[NMeS]C[Nva]-NH2 (linker 2-9 via mXylyl(5)) [R3080] belongs more than 50000 nM; to Ac-[Nva]C[Phg]T[Trp(7-aza)]EY[NMeS]HC[Nva]-NH2 (linker 2-10 via oXylylene) [R3049], more than 3100 nM; to Ac-VC[Phg]T[Trp(7-aza)]EY[NMeS]AC[Nva]-NH2 (linker 2-10 via mXylyl(5)) [R3083], more than 25000 nM.
B4: the “Avg. IC50, human hemolysis assay” value amounted to 81.7 nM.
To MCVERFCDVYW-NH2 (linker 2-7 via mXylyl) [R3044] belongs more than 50000 nM.
To MCVERFCD[Tle]Y[Trp(7-aza)]EYP[Phg][Nva]-NH2 (linker 2-7 via mXylyl(5)) [R3057] belongs 12.4 nM; to Ac-[Nva]CKE[Phg]YC[NMeS][Tle]K[Trp(7-aza)]EY-NH2 (linker 2-7 via mXylyl) [R3007], 314 nM.
As for Ac-[Nva]C[Phg]T[Trp(7-aza)]EY[NMeS]HC[Nva]P[Nva] (bridge 2-10) [R3040], the figure is more than 100000 nM.
As for Ac-[Nva]C[Phg]T[Trp(7-aza)]EYPHC[Nva]-NH2 (linker 2-10 via pXylylene) [R3065], the “Avg. IC50, human hemolysis assay” value came out at 394 nM.
To Ac-[Nva]C[Phg]T[Trp(5-F)]EY[NMeS]AC[Nva]-NH2 (linker 2-10 via mXylyl(5)) [R3088] belongs more than 100000 nM; to B5, 26.9 nM.
As for B6, the figure is 66.7 nM; as for Ac-[Nva]C[Phg]T[Trp(7-aza)]E[Phe(4-F)][NMeS]HC[Nva]-NH2 (linker 2-10 via mXylyl(5)) [R3073], 403 nM.
To [Nva]CY[NMeS][Phg][NMePhe(4-F)][NMeS]H[NMePhe(4-F)][Sar]C-NH2 (linker 2-11 via mXylyl(5)) [R3051] belongs more than 100000 nM; to Ac-[Nva]C[Phg]T[Trp(7-aza)]EY[NMeS]HC[Nva]-NH2 (bridge 2-10) [R3042], more than 100000 nM; to B7, 267 nM.
For the molecule Ac-[Nva]SYEC[Tle]Y[Trp(7-aza)]EYP[Chg]C[Nva]-NH2 (linker 5-13 via mXylyl(5)) [R3086], the “Avg. IC50, human hemolysis assay” value is more than 50000 nM.
To [Nva]CY[Tle][Phg]N[Sar]LC[Phg][NMeA]-NH2 (linker 2-9 via mXylyl(5)) [R3052] belongs more than 100000 nM.
